According to US20210130459A1 (YISSUM RESEARCH DEVELOPMENT COMPANY OF THE HEBREW …, published 2021):

T1: human Nectin4 expressed on cells (human, UniProt Q96NY8 32-510)
T1 construct: whole, on cells; also called PVRL4; native human Nectin-4
T1 sequence (looked up): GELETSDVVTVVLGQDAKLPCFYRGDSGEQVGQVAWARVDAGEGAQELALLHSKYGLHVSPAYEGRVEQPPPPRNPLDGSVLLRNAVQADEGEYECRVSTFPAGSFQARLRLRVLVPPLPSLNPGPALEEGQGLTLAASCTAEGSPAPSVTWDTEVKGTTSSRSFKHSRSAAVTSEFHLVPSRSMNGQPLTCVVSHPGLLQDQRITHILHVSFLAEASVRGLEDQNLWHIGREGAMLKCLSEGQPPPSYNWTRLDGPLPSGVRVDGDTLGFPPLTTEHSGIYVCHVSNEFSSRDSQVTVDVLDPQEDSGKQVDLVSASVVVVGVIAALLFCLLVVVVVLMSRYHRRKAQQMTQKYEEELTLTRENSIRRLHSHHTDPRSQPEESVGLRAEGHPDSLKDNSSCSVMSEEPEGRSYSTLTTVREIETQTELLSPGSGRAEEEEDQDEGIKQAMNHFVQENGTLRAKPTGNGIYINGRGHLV

T2: murine Nectin4 expressed on cells (murine, UniProt Q8R007 31-508)
T2 construct: whole, on cells; also called mNectin4
T2 sequence (looked up): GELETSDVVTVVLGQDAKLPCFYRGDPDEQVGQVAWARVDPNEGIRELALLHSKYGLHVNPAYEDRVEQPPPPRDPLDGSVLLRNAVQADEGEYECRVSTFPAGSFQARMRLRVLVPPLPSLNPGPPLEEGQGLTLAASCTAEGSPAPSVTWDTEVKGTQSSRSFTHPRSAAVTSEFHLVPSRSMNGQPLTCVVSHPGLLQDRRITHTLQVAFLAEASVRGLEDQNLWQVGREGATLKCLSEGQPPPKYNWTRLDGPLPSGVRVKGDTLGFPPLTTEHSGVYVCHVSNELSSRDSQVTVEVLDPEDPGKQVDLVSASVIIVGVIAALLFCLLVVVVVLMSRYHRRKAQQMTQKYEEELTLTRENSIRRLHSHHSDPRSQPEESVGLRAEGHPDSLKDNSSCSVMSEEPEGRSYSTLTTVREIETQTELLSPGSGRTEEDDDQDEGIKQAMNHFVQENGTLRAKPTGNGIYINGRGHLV


Tests used:
[1] = molecular target: T1, human Nectin4 expressed on cells; test: FACS blocking assay, RAJI cells transfected with human Nectin4, 1 µg clone, then 3 µg Nectin1-Ig; blocked ligand Nectin1-Ig
Description: FIGS. 6A-6C Blocking of Nectin4-Nectin1 interactions. (A-B) FACS staining of RAJI cells transfected with human-Nectin4. Cells were pre-incubated with 1 μg of (A) clone hNec4.01, or (B) clone hNec4.05 and then incubated with 3 μg of Nectin1-Ig (black line histograms). Staining without blocking appears as gray line. Grey filled histograms are background control staining of secondary antibody only. (C) Mean Fluorescence Intensity (MFI) values of FACS staining of A and B.
For staining of human TIGIT-Ig or human Nectin1-Ig, cells were incubated on ice for 1 hour with 3 μg of TIGIT-Ig per 100,000 cells. Detection was performed with a secondary Alexa Fluor 647 anti-human (Jackson ImmunoResearch) for 30 min on ice. For blocking experiments cells were pre-incubated with 1 μg of the indicated antibody prior to the TIGIT-Ig or human Nectin1-Ig staining. In some cases, cells were incubated with 8 ug/ml of the indicated Ab together with human TIGIT-Ig or human Nectin-1-Ig (at 20 ug/ml). Detection of ligand binding was performed with a secondary Alexa Fluor 647 anti-human Ab (Jackson ImmunoResearch).
The ability to the anti-Nectin4 to block Nectin4-Nectin1 interactions was also determined. […] Cells were Pre-incubated with 1 μg of (FIG. 6A) clone hNec4.01 or (FIG. 6B) clone hNec4.05 and then incubated with 3 μg of Nectin1-Ig (black line). Staining without blocking appears as gray line. […]

[2] = molecular target: human Nectin4-Ig (Nectin4-Fc fusion protein) (human) (UniProt Q96NY8); test: microscale thermophoresis with fluorophore-labeled human Nectin4-Ig
[3] = molecular target: T2, murine Nectin4 expressed on cells; test: FACS staining of RAJI cells transfected with murine Nectin4
Description: (A) Western blots of RAJI cells transfected with murine Nectin4 (indicated as mNectin4) and detected with commercial anti-murine Nectin4 mAb (Clone 356704 which doesn't work for flow cytometry). Expression was compared to RAJI cells expressing empty vector (indicated as Empty). Staining for hGAPDH was used as loading control. (B-C) FACS staining of RAJI cells transfected with murine Nectin4 (black line histograms). Cells were stained with 0.2 μg of (B) clone hNec4.01 or (C) clone hNec4.05.
RAJI cells were transfected with murine Nectin4 (black line histograms). First, RAJI cells transfected with murine Nectin4 lysates was used in Western blot assay with a commercial anti murine Nectin4 mAb (Clone 356704) in order to verify murine Nectin4 expression (A). Next, the cells were stained with 0.2 μg of (B) clone hNec4.01 or (C) clone hNec4.05.

[4] = molecular target: T1, human Nectin4 expressed on cells; test: FACS titration (20-0.01 nM) on the human cell line titled 'MDA-MD-543' on the sheet (MDA-MD-453 in the legend)
Description: (§1) FIGS. 8A-8C Antibody clones hNec4.05 and hNec4.11 binding to cell surface Nectin-4. (A) Antibody binding to Nectin-4 expressed on the human cell line MDA-MD-453 was evaluated by FACS analysis. […] (B) Antibody binding to CHO cells transfected with Cynomolgus (Cyno)-Nectin-4 and analyzed as in A. (C) Antibody binding to CHO cells transfected with murine-Nectin-4 and analyzed as in A. ND—not detected.
(§2) Binding of murine anti-human Nectin-4 clones hNec4.05 and hNec4.11 to Nectin-4 expressed on the human cell line MDA-MD-453 was evaluated by FACS analysis. […] FIG. 8B depicts antibody binding to CHO cells transfected with Cynomolgus (Cyno)-Nectin-4 and FIG. 8C depicts antibody binding to CHO cells transfected with murine-Nectin-4. […] This may be important for pre-clinical studies of the Ab.

[5] = molecular target: T2, murine Nectin4 expressed on cells; test: FACS titration on CHO cells transfected with murine Nectin-4, compared with MDA-MD-453 cells
Description: as §1, §2

[6] = molecular target: T1, human Nectin4 expressed on cells; test: FACS titration on MDA-MD-453 cells
Description: as §1, §2

Binder	binding result [1]	Kd [2]	binding result [3]	binding result [6]	further results
monoclonal antibody hNec4.05 (antibody, IgG1, V domains shown, also called Nectin4.05; Clone 5) VH: QVQLQQSGPELVKPGASVRISCKASGYTFTTYYIHWVKQRPGQGLEWIGWIYPGNVNTKNNEKFKVKATLTADKSSSTAYMQLSSLTSEDSAVYFCARSNPYVMDYWGQGTSVTVSS VL: SIVMTQTPKFLLVSAGDRVTITCKASQSVSNDVAWYQQKPGQSPKLLIYYASNRYTGVPDRFTGSGYGTDFTFTISAVQAEDLAVYFCQQDYSSPYTFGGGTKLEIK	binds	0.272 nM	no binding (tested: 0.2 µg)		
monoclonal antibody hNec4.11 (antibody, V domains shown, also called Nectin4.11; clone 11) VH: QVQLQQSGPELVKPETSVKISCKASGYTFTSYYIHWVKQRPGQGLEWIGWIYPGNVNTKYNERFKGKATLTADKSSNTAHMQLTSLTSEDSAVYFCARSNPYVMDYWGQGTSVTVSS VL: SIVMTQTPKFLLVSAGDRVTITCKASQSVNNDVAWYQQKPGLSPELLMYYASNRFTGVPDRFTGSGYGTDFTFTISSVQAEDLAIYFCQQAYRSPYTFGGGTKLEIQ					binding result [4]: binds; fold EC50 against the EC50 for the human target [5]: ~10 fold
chimeric clone hNec4.05hIgG1 (antibody, V domains shown, also called human IgG1 chimeric Ab clone hNec4.05; chimeric version of hNec4.05) VH: QVQLQQSGPELVKPGASVRISCKASGYTFTTYYIHWVKQRPGQGLEWIGWIYPGNVNTKNNEKFKVKATLTADKSSSTAYMQLSSLTSEDSAVYFCARSNPYVMDYWGQGTSVTVSS VL: SIVMTQTPKFLLVSAGDRVTITCKASQSVSNDVAWYQQKPGQSPKLLIYYASNRYTGVPDRFTGSGYGTDFTFTISAVQAEDLAVYFCQQDYSSPYTFGGGTKLEIK				binds	
chimeric clone hNec4.11hIgG1 (antibody, V domains shown, also called human IgG1 chimeric Ab clone hNec4.11; chimeric version of hNec4.11) VH: QVQLQQSGPELVKPETSVKISCKASGYTFTSYYIHWVKQRPGQGLEWIGWIYPGNVNTKYNERFKGKATLTADKSSNTAHMQLTSLTSEDSAVYFCARSNPYVMDYWGQGTSVTVSS VL: SIVMTQTPKFLLVSAGDRVTITCKASQSVNNDVAWYQQKPGLSPELLMYYASNRFTGVPDRFTGSGYGTDFTFTISSVQAEDLAIYFCQQAYRSPYTFGGGTKLEIQ				binds	
monoclonal antibody hNec4.01 (antibody, IgG1, V domains shown, also called Nectin4.01; Clone 1) VH: EVQLQQSGPELVKPGASVKIACRASGYTFTAYNIHWVSQRHGKSLEWIGYIYPNNGGSGYNQKFMNKATLTVDHSSNTAYMELRSLTSEDSAVYYCAIFDYDEAWFIYWGQGTLVTVSA VL: ENVLTQSPEIMSASPGEEVTMTCSASSSVSYMHWFQQKSTISPKLWIYDTSKLASGVPGRFSGSGSGKSYSLTIRNMEAEDVATYYCFQGSGSPYTFGGGTKLEIK	binds	0.107 nM	no binding (tested: 0.2 µg)		
